Target: immunoglobulin G (IgG) obtained from human serum (human)
Assay: human serum IgG (2 mg/mL) bound to Protein A on latex beads, washed, read by SDS-PAGE

Protein A polymer (UniStac linear multimeric polymer of Protein A) immobilized on latex beads
increase of binding activity compared to beads with the Protein A monomer: > 15%
